# From the supplement of paper PMC12042874
# ± gives the uncertainty stated by the source.
# Experiment: amyloid nucleation score (Sup35N fusion, yeast selection) (log enrichment); library NNK2; higher = more nucleation; inactive = no reads after selection
# Procedure, shortened: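 In psi-negative yeast, Sup35N fusions carrying peptides of 20 random codons were induced with 100 μM copper sulfate for 24 hours. The cells then grew 7 days at 30°C on medium lacking adenine and uracil, and plasmid inserts from input and output were Illumina-sequenced, excluding sequences with under 100 input reads. Nucleation score is the DiMSum log enrichment of output over input reads, centred on the mode score of non-aggregating sequences.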
row,Substance,amyloid nucleation score
1,MRVNECCKAEGSQGRLARLV,0.97 ± 0.55
2,MVPGDRCPIAKNHFFPKINL,-0.335 ± 0.45
3,RRMTCALYVIRWFSVHYFYL,-1.79 ± 0.75
4,VWILSLAWLLPGYTCPFGPK,4.801 ± 0.042
5,LSYVFIVECPSSAGMLPRPF,4.01 ± 0.13
6,WTTYLGSFKWRNRVKWWPAP,1.88 ± 0.18
7,SFWNQKYCA,-0.117 ± 0.4
8,FYFLLG,0.587 ± 0.32
9,SSRHNPIWLRTAMDGDLGFA,0.864 ± 0.5
10,DAFYDS,-2.05 ± 0.75
11,YILSDIIFMGIWGV,4.1 ± 0.13
12,SKVNVVVDNMG,-0.125 ± 0.39
13,LAQRSNFRASCWINFLGWLD,inactive
14,CCCLSKHSNECGLRMDRPFT,0.909 ± 0.6
15,WSVCKRLCNVEMLAENLAID,-0.67 ± 0.79
16,YRVWWSVIYVKWVG,-0.618 ± 1.1
17,LKTACVDALLH,0.258 ± 0.26
18,IRLVHSNVEIWGSDLVFHRG,6.196 ± 0.04
19,EDITI,-1.67 ± 0.41
20,RDLDY,-1.27 ± 0.75
21,AMSECQHKMQWAAFSVFPGQ,5.91 ± 0.089
22,TYVVKLLIGWDLDAIFTVLS,0.499 ± 0.37
23,PSNNIFSLLFLVLKHFIDMR,inactive
24,NSKLPAEFLFFQYECMESPR,-0.758 ± 0.79
25,QTGQGYIVQGTVNSMKGCFR,-0.038 ± 0.65

row,Substance,amyloid nucleation score
1,WQHGVRSGQQECPRLEGNRV,0.379 ± 0.23
2,GMICKWAWVSTGGKGVKCRE,0.272 ± 0.43
3,FARSFPRFRTESFDCKECRG,inactive
4,NLFNLSCHGLLNERKHLSGV,-0.442 ± 0.44
5,AKLPKPSRLHQRLTKQTV,1.19 ± 0.38
6,NYCVLSFDISGYAFYKEGLG,-0.492 ± 1.1
7,SFPMLVISVS,4.7 ± 0.068
8,YLYPSCCIRYILILNFYTVI,0.013 ± 0.16
9,YVRMMTNSTLLGRGLKYLCV,0.429 ± 0.62
10,WGNILW,inactive
11,GESEVLSRRRQFFGRLWVCM,inactive
12,IMVRVIAFNVL,6.864 ± 0.041
13,YMSFPLDVLVICLCRIVIES,0.089 ± 1.1
14,FLFRKYWLTNRWLFMFKEFA,0.196 ± 0.65
15,GPFNNRRGQFYSVCIYFLLR,inactive
16,YSYVGFIF,1.49 ± 0.32
17,SRVSLHNES,-0.453 ± 1.1
18,SGLVWVTN,-0.018 ± 1.1
19,FFIESSMLWYWDLKRYPMTL,-0.225 ± 0.54
20,NDLESMYSEGFPLLNTAHK,inactive
21,TYFYSWYGKYPADSRFY,-0.488 ± 1
22,SGIHEIFESVFFNTYFRRMT,-0.549 ± 1
23,VSNGVVMDKCIRKICTVLTM,-0.667 ± 0.45
24,IGISYCSRRVIFHGTRKTHS,-0.034 ± 0.28
25,QVLFVRFRRYVYQRMWACWG,0.405 ± 0.74

row,Substance,amyloid nucleation score
1,VDWCWGLWT,0.945 ± 0.24
2,NQVQCKCSYKVVEVG,0.408 ± 0.2
3,KVLMLQHPIGYLLNILTMS,-0.017 ± 0.41
4,FIAYRFWFWKGVSASKEHGQ,0.433 ± 0.62
5,RQEINSYGNTPRRGGPRLRH,-0.093 ± 0.55
6,MFWSTSYRNNFWTPIWEKLG,-0.597 ± 0.39
7,NGVDMVVAAGLSGCRWGRIR,0.249 ± 0.39
8,HQAWSCSTVGFDLAVVNFAD,-0.197 ± 0.43
9,VAFIYCIV,4.99 ± 0.068
10,THYTDIIFFQEGLY,inactive
11,TFWTANISSADTSSFFY,0.272 ± 0.34
12,INWSHRGIISLDERMIIQYV,0.154 ± 0.65
13,LLSKGLA,-0.682 ± 0.32
14,RLNCACFRADTVGDYLGVRL,-0.158 ± 0.29
15,RYSNMLN,3.83 ± 0.096
16,GNLLLSVITDQL,4.69 ± 0.072
17,YTQAYILVLIVLLLLSVMVI,5.638 ± 0.054
18,FIKVFCSLRVDNQVRYRKRL,2.75 ± 0.1
19,MLDVCGVLHLPRRSLIAFVA,1.27 ± 0.21
20,TERLICMRTSMPSFIYVFWD,-0.847 ± 0.54
21,VVDGLRATAH,0.366 ± 0.38
22,LLLILTL,0.21 ± 1
23,NCECMRWDDF,-0.561 ± 0.38
24,IFWVVEFWIYYTSFLSWETR,0.455 ± 0.51
25,NALVVLDMFLTIRSSVKGFI,inactive

row,Substance,amyloid nucleation score
1,FGNFLLSITII,2.4 ± 0.062
2,LLDLALRLTMGLITKHEANK,3.61 ± 0.064
3,YCERAHALICSLRQVGWVPR,0.719 ± 0.25
4,LASHVVWTDKN,6.635 ± 0.041
5,HNLEWKNRNQTWSSLTPIVW,0.384 ± 0.44
6,EFILHVTQIAAIMDLRLVHM,4.01 ± 0.11
7,YLEWIL,-2.06 ± 0.54
8,QGEEVGWFRFGRKSGAINMV,0.076 ± 0.36
9,TGKLCSSIKWWGT,1.06 ± 0.39
10,WRQLRSPVYRPYCL,-0.124 ± 0.32
11,YIVQWSFMVSRSQ,1.62 ± 0.086
12,AVNGQGDS,-0.231 ± 0.43
13,QVVFQGLFFYVGCSGHICRY,7.67 ± 0.062
14,IVVRL,0.639 ± 0.41
15,FCWNYMFVFRIGCFGFDFIG,inactive
16,ACDSAIIGWNKIT,0.504 ± 0.54
17,SGCGCGLGMPTCRRSVRG,0.631 ± 0.19
18,RVMEYEILLIFCI,0.135 ± 0.65
19,NVLRCINYYLYYTSGCASSS,-0.169 ± 0.42
20,CDLFGSCVDIWDTYINLSDR,-0.573 ± 1.1
21,VWQFRCGERMTKCLLWGDYG,0.072 ± 0.31
22,LPCGVSLALHSWENYILNRP,0.55 ± 0.52
23,IKHDLSTFNNFSPVSWNMVY,-0.307 ± 0.79
24,TFGTQELELTD,inactive
25,WWYGGLEMGFIICFRIPNVI,-0.606 ± 1.1

row,Substance,amyloid nucleation score
1,MESRILRNIYFCLTCKPSQW,2.24 ± 0.17
2,GRVFIASLIARTDPPKLVFK,1.67 ± 0.083
3,WLAICVARWSETYCMFVWTT,-0.441 ± 1.1
4,YLYSAQNIRGRWLFCSMKCD,-1.03 ± 0.62
5,GLIYIRDFSFREKGGCYQGL,-1.29 ± 1.1
6,GMGSSRGQRSTYYYGDLAYA,0.96 ± 0.21
7,FNGCFSCTMG,8.109 ± 0.055
8,RLKLMQFLHLAPIVPAILCC,0.444 ± 0.35
9,YLIAELFQIVDACLWLSSWR,-0.328 ± 0.38
10,TTHCRLYMYVWWMYVVIFFD,2.11 ± 0.16
11,NPALNRLMDGVNRFPLKCYV,-0.338 ± 0.23
12,LWSSKYYKPPYWDNVVCSII,-0.699 ± 1
13,PARAKRLTAL,-0.207 ± 0.29
14,CVMNF,-0.586 ± 0.42
15,CVMFTLSCVNFDCDCSCRWK,6.31 ± 0.084
16,LSRAN,inactive
17,FFGTMV,-0.19 ± 0.37
18,GGYDGVSQMCHFEITWNWMT,1.37 ± 0.29
19,VMLNWDMGDFRA,inactive
20,SVFAKGISAVLLGACLRIAA,1.03 ± 0.25
21,RFDINHCIKRCRFGRLVAEI,3.12 ± 0.1
22,STSSKVGVEAYTRDDRHLLS,1.01 ± 0.19
23,NSMILDKNRDSTNFVSCFSY,-1.6 ± 0.49
24,VVWCGTYVYHDV,8.885 ± 0.075
25,WDSQESITKS,-0.172 ± 0.54

row,Substance,amyloid nucleation score
1,FYSCCPWLSLRSAMIYVMIS,1.61 ± 0.22
2,TNLFVSLPQPSVVKSSGSLQ,0.212 ± 0.31
3,CLQCQLIRRGLTKMNMGFAS,-0.023 ± 0.45
4,TSRLNMVTSHVLKWCDNRSR,-0.516 ± 0.5
5,DGDNNCMCS,0.404 ± 0.48
6,STASLHGVMLGMRLKNPLGV,-0.97 ± 0.63
7,YLYSNG,inactive
8,PGYSSNSCERDLLGRASVWL,-0.593 ± 0.74
9,DRQCK,0.445 ± 0.32
10,GCHSFLPGYFTWNYDSDNYF,inactive
11,NPVMTA,-0.314 ± 0.37
12,YCCTDQGFSLGYRMLWCRDN,-1 ± 0.24
13,LSPVSWYLRITYNAYSMVGQ,1.91 ± 0.11
14,AHIREMNVSGGCWLVQWVSK,9.497 ± 0.038
15,YLSIFRVLSIFCVWLHTVGN,inactive
16,CACDNHIVNRSESHCYGSLR,-0.293 ± 0.39
17,HYCVIEKRSHIG,-0.739 ± 0.64
18,LDGITSIDG,-1.15 ± 0.74
19,KTIRRDVCIVVLSLQSDLNM,5.62 ± 0.069
20,MRWFNNVFFGYVVSVSRSWN,-1.01 ± 1.1
21,CKKKSRTDCMLSFCVCFDGV,7.276 ± 0.035
22,NRVGSSGSRYALHRVSSS,4.846 ± 0.045
23,KTRLPGVL,inactive
24,PGEECGGLSITIEWGTSSS,0.211 ± 0.5
25,GGTIYTLL,-1.01 ± 0.36

row,Substance,amyloid nucleation score
1,LGIYVFAFKRMVNMEDLYTR,-1.05 ± 0.41
2,PARMNLYVCIYV,7.32 ± 0.081
3,YEGNFAHCFSLGPDHVID,-0.202 ± 1.1
4,GMPFG,0.044 ± 0.28
5,SVGMKLRREEFGRSAVRAVL,0.901 ± 0.28
6,IVFSDLTITF,3.29 ± 0.11
7,VACCFNSQYSEAI,3.99 ± 0.076
8,AHRYGR,1.57 ± 0.43
9,YPDDLVMPLDDQRCKARLGH,0.665 ± 0.57
10,FLFYTFRLRVFFLNCNSEDW,-1.97 ± 0.54
11,RYAINCVEAYGLC,-0.387 ± 0.63
12,CSLTSFAGNSIYFRWRANT,1.18 ± 0.14
13,SSMSNIEE,-1.15 ± 0.42
14,GNMISERSKSSVHN,-1.52 ± 1.1
15,VLPGKVRPFCGSMCNSFFSL,0.157 ± 1
16,DMRFYMVLA,4.94 ± 0.051
17,QVTSCGSWWSRSIWYEVVFS,-0.622 ± 1.1
18,MINFHKHGLTI,-0.482 ± 0.35
19,LGGLSDVFQNRPLMTYGAWS,-0.303 ± 0.35
20,LVFDACTPEEVGG,0.735 ± 0.27
21,YVYMSYPYIILLFHYMSSDW,inactive
22,MMMLLG,0.505 ± 0.13
23,LRSKTDAPDGRFLAWSSMLC,0.458 ± 0.25
